# Measurements taken from publication PMC5726920.
# How the values were obtained:
# [1] = target: 10 kDa heat shock protein; experiment: native MS
# [2] = target: triosephosphate isomerase, isoform 2, initiator methionine removed; experiment: native MS
# Chain of triosephosphate isomerase, isoform 2, initiator methionine removed (enzyme) (P60174 2-249): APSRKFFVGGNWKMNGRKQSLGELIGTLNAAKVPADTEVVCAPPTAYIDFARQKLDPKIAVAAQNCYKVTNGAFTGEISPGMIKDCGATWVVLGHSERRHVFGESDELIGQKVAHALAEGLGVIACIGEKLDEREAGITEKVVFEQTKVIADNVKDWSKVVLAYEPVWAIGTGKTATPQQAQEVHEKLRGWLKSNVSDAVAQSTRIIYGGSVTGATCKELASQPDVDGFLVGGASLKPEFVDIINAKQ
Substance,stoichiometry N [1],stoichiometry N [2]
10 kDa heat shock protein (natural protein),7,–
"triosephosphate isomerase, isoform 2, initiator methionine removed (enzyme)",–,2
